Results: US20230331815A1 (priority 2020, published 2023)

B1: hLF: human lactoferrin (LF), 711 amino acids, SEQ ID NO:4; 70-80 kDa basic protein of the transferrin family (protein, listed as Homo sapiens)
chain: MKLVFLVLLFLGALGLCLAGRRRRSVQWCAVSQPEATKCFQWQRNMRKVRGPPVSCIKRDSPIQCIQAIAENRADAVTLDGGFIYEAGLAPYKLRPVAAEVYGTERQPRTHYYAVAVVKKGGSFQLNELQGLKSCHTGLRRTAGWNVPIGTLRPFLNWTGPPEPIEAAVARFFSASCVPGADKGQFPNLCRLCAGTGENKCAFSSQEPYFSYSGAFKCLRDGAGDVAFIRESTVFEDLSDEAERDEYELLCPDNTRKPVDKFKDCHLARVPSHAVVARSVNGKEDAIWNLLRQAQEKFGKDKSPKFQLFGSPSGQKDLLFKDSAIGFSRVPPRIDSGLYLGSGYFTAIQNLRKSEEEVAARRARVVWCAVGEQELRKCNQWSGLSEGSVTCSSASTTEDCIALVLKGEADAMSLDEGYVYTAGKCGLVPVLAENYKSQQSSDPDPNCVDRPVEGYLAVAVVRRSDTSLTWNSVKGKKSCHTAVDRTAGWNIPMGLLFNQTGSCKFDEYFSQSCAPGSDPRSNLCALCIGDEQGENKCVPNSNERYYGYTGAFRCLAENAGDVAFVKDVTVLQNTDGNNNEAWAKDLKLADFALLCLDGKRKPVTEARSCHLAMAPNHAVVSRMDKVERLKQVLLHQQAKFGRNGSDCPDKFCLFQSETKNLLFNDNTECLARLHGKTTYEKYLGPQYVAGITNLKKCSTSPLLEACEFLRK
B2: Recombinant lactoferrin: recombinant lactoferrin expressed or manufactured in other species, e.g., plant species such as rice (e.g., Ventria Bioscience) (protein, UniProt P02788 20-710, looked up)
Lactotransferrin: GRRRSVQWCAVSQPEATKCFQWQRNMRKVRGPPVSCIKRDSPIQCIQAIAENRADAVTLDGGFIYEAGLAPYKLRPVAAEVYGTERQPRTHYYAVAVVKKGGSFQLNELQGLKSCHTGLRRTAGWNVPIGTLRPFLNWTGPPEPIEAAVARFFSASCVPGADKGQFPNLCRLCAGTGENKCAFSSQEPYFSYSGAFKCLRDGAGDVAFIRESTVFEDLSDEAERDEYELLCPDNTRKPVDKFKDCHLARVPSHAVVARSVNGKEDAIWNLLRQAQEKFGKDKSPKFQLFGSPSGQKDLLFKDSAIGFSRVPPRIDSGLYLGSGYFTAIQNLRKSEEEVAARRARVVWCAVGEQELRKCNQWSGLSEGSVTCSSASTTEDCIALVLKGEADAMSLDGGYVYTAGKCGLVPVLAENYKSQQSSDPDPNCVDRPVEGYLAVAVVRRSDTSLTWNSVKGKKSCHTAVDRTAGWNIPMGLLFNQTGSCKFDEYFSQSCAPGSDPRSNLCALCIGDEQGENKCVPNSNERYYGYTGAFRCLAENAGDVAFVKDVTVLQNTDGNNNEAWAKDLKLADFALLCLDGKRKPVTEARSCHLAMAPNHAVVSRMDKVERLKQVLLHQQAKFGRNGSDCPDKFCLFQSETKNLLFNDNTECLARLHGKTTYEKYLGPQYVAGITNLKKCSTSPLLEACEFLRK
modifications: expressed in rice

Columns and labels:
[1] = tested on: SARS-CoV pseudovirus; details: cited from earlier work
[2] = tested on: SARS-CoV pseudovirus; assay type: cell-based
[3] = acidic pH conditions during inflammation; cited from earlier work
[4] = tested on: SARS-CoV-2 pseudovirus; assay type: cell-based
[5] = tested on: HSPG receptor; assay: hLF cell membrane localization, confocal microscopy of VeroE6/T cells; assay type: cell-based, African green monkey; details: 2.5 µM hLF, cells chilled at 4° C., anti-hLF staining
Protocol: To visualize cell membrane localization of human lactoferrin (hLF), VeroE6/T cells (0.75×10^5 cells/well) were chilled at 4° C. for 1 hr, incubated with 2.5 µM of hLF. Cells were washed, fixed using 4% PFA (Invitrogen), stained with anti-hLF antibody, and fluorescent image was taken under confocal microscope (FIG. 10, middle row). Cell nuclei were visualized using DAPI (FIG. 10, bottom row). To visualize the cell surface and nuclei at the same time, the confocal images above (i.e., FIG. 10, middle and bottom rows) were merged and are presented in FIG. 10, top row. […] To see the effect of heparin on the binding of hLF to the cell surface (specifically the HSPG receptor), cells were co-incubated with hLF and heparin (H), and the confocal image was taken (FIG. 10, right column).

[6] = molecular target: ACE2 receptor (Homo sapiens, UniProt Q9BYF1); assay: Effect on ACE2 receptor enzyme activity; assay type: biochemical; details: binds away from the enzyme active site
Chain of ACE2 receptor (Q9BYF1 18-805): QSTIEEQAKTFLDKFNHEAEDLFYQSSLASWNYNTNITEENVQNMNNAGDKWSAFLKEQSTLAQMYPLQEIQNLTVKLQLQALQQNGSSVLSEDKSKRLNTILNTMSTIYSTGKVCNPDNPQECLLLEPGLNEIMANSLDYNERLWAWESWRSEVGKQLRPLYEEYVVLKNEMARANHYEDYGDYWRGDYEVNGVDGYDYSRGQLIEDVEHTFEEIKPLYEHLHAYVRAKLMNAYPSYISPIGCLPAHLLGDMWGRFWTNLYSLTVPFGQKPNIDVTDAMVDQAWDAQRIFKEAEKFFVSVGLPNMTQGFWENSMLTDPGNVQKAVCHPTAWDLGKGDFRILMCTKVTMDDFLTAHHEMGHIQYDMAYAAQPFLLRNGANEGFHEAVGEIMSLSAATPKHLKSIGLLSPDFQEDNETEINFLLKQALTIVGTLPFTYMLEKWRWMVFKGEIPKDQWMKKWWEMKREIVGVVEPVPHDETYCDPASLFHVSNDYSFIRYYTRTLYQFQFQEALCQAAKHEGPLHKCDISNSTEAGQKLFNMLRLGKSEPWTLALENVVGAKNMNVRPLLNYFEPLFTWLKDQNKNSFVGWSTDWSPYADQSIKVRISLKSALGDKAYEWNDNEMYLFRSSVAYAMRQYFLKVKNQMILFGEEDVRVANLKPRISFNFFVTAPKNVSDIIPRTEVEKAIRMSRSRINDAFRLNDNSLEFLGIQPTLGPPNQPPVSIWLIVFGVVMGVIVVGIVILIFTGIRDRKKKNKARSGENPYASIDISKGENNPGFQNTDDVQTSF
From the text: The results were proven using a small molecule inhibitor. This type of fusion protein enables both lactoferrin to bind to the HSPG on the cell surface and the receptor binding site on the S protein to bind to the ACE2 receptor on the cell surface, thereby tying up both the receptor and co-receptor on the host cell and preventing entry of the virus into the cell. […] Thus, in some embodiments, a recombinant protein as described herein, wherein the receptor binding domain of the SARS-CoV-2 spike (S) protein is fused with lactoferrin, binds to the host cell surface receptors (e.g., ACE2 receptor and HSPG) and prevent binding of the SARS-CoV-2 virus from binding and entering the host cell. This approach is different from other studies in the art, in which recombinant proteins bind to the viral particles themselves to prevent attachment of the virus to the cell. The present disclosure rather discloses a recombinant protein that binds to the host cell and effectively ties up the cell surface receptors such that the virus particles can no longer bind and infect the cell.

Molecule | SARS pseudovirus entry [1] | entry of SARS-CoV virus into cells [2] | iron affinity relative to transferrin [3] | inhibition of SARS-CoV-2 infection in target cells ([4]; VeroE6 or VeroE6/Tmprss2) | entry of SARS-CoV-2 virus into cells ([4]; in vitro) | binding to HSPG receptor on the cell membrane [5] | effect on ACE2 receptor enzyme activity / cellular function [6] | anti-viral effective concentration range ([4]; virus not named)
B1 | prevents SARS pseudovirus entry | prevent entry | 30 times higher than transferrin | efficient inhibitor | prevent entry | binds the HSPG receptor on the cell membrane | does not interfere with ACE2 receptor activity | –
B2 | – | – | – | – | – | – | – | effective in the low µM range
